Consider three molecules from US12329841B2, “Odorant-binding protein compositions, methods and uses thereof” (Universidade do Minho, priority 2020, dated 2025).

Series [1] can be described thus: Fragrance release quantified by headspace GC-MS after adding sweat solution. The following applies: for Odorific molecules released in response to human perspiration, compared with other fusion proteins based on porcine OBP: sweat pH 4.0-8.5. The protocol: In an embodiment, the release of fragrance was quantified by gas chromatography-mass spectrometry (GC-MS). Increased concentrations of fragrance were used in different vials and the fragrance in headspace quantified performing the calibration curve (area of peak vs fragrance concentration). The fragrance was incubated with the odorant-binding protein at 37° C. Sweat solution was added and the fragrance release determined after several periods of time (0.5-24 h) of perspiration exposition.

The nature of series [2]: Competitive fluorescence assay with sweat solution added to 1-AMA/protein complex. The format is binding. The settings on record: 37° C.; for Ka in sweat (affinity/association constant): sweat solution (AATCC 15-2009, pH 4.0-8.5), 1 μM protein + 2 μM 1-AMA, mean of 2 independent experiments. The protocol:
(§1) In an embodiment, the pure odorant-binding protein was lyophilized and used in further procedures. To determine the affinity of the odorant-binding protein to odour molecules, 1-aminoanthracene (1-AMA) was used as an odour model molecule. Increased concentrations of fluorescent ligand model 1-aminoanthracene (1-AMA) were added to 1 μM of protein, and the formation of ligand/protein complex was quantified after 1 h at 37° C. by fluorescence emission at 481 nm (excitation at 295 nm).^30 Dissociation constant (Kd) was determined from a plot of fluorescence intensity versus concentration of ligand, obtained with a standard non-linear regression method, described in Malpeli et al. (1998).^31 The affinity behaviour of protein in presence of sweat solution was performed through a competitive fluorescence assay. Here, 1 μM of protein was mixed with 2 μM of 1-AMA and incubated at 37° C. for 1 h. After this period, increased volumes of sweat solution were added to the complex and incubated at same conditions.
In an embodiment, the sweat solution was prepared as indicated in AATCC method 15-2009 “Colorfastness to Perspiration”. The pH of the prepared solution varied between 4.0 and 8.5. In accordance with its composition, the sweat solution is also regarded as electrolyte solution.
(§2) In a further embodiment, fluorescence emission at 481 nm (excitation at 295 nm) was recorded and the dissociation constant (Kd) calculated. The association constant (Ka) was calculated by formula Kd=1/Ka.

Series [3] can be described thus: 1-AMA fluorescence binding assay in buffer. The following applies: 50 mM Tris-HCl pH 7.5 buffer, 37° C., 1 μM protein, 1-AMA ligand, Ka from Kd=1/Ka, mean of 2 independent experiments. The protocol: as §1, §2
For series [4] the following is noted: particularly in the presence of a ligand; cited from earlier work.
For series [5] the following is noted: cited from earlier work.
The mark [6] stands for this setting: listed as Native porcine OBP (OBP-I).

B1: OBP-I: Native porcine (pig) odorant-binding protein, PDB ID 1DZK, SEQ ID NO. 1 (protein, listed as Sus scrofa)
chain: QEPQPEQDPFELSGKWITSYIGSSDLEKIGENAPFQVFMRSIEFDDKESKVYLNFFSKENGICEEFSLIGTKQEGNTYDVNYAGNNKFVVSYASETALIISNINVDEEGDKTIMTGLLGKGTDIEDQDLEKFKEVTRENGIPEENIVNIIERDDCPA
modifications: Pig OBP (PDB ID 1DZK)
Turning to B1, in series [1], the “Odorific molecules released in response to human perspiration, compared with other fusion proteins based on porcine OBP” value is recorded as “more than 20 ×”. In addition, in series [2], the “Reduction of affinity on addition of sweat solution (Ka buffer vs Ka sweat)” value (“Reduction of affinity” for short) is on record as 20 ×. Also, the Ka in sweat (affinity/association constant) stood at 0.2 µM⁻¹ in series [2], 0.2 ± 0.02 µM⁻¹ in series [2] (listed as Native OBP-I) and 0.2 ± 0.02 µM⁻¹ in series [2] (setting [6]). Besides, the Ka in buffer (affinity/association constant) in series [3], in series [3] (listed as Native OBP-I) and in series [3] (setting [6]) was 4 ± 0.03 µM⁻¹ in each case. For the same molecule, in series [4], the “Structure stable to thermal denaturation up to (FT-IR)” value was “up to 80 °C”.

B2: OBP::GQ20::CBM: Recombinant pig OBP fused with spacer GQ20 and carbohydrate-binding module; comparative data, SEQ ID NO. 22 (protein)
chain: QEPQPEQDPFELSGKWITSYIGSSDLEKIGENAPFQVFMRSIEFDDKESKVYLNFFSKENGICEEFSLIGTKQEGNTYDVNYAGNNKFVVSYASETALIISNINVDEEGDKTIMTGLLGKGTDIEDQDLEKFKEVTRENGIPEENIVNIIERDDCPAGQGQGQGQGQGQGQGQGQGQGQGQGQGQGQGQGQGQGQGQASPIGEGTFDDGPEGWVAYGTDGPLDTSTGALCVAVPAGSAQYGVGVVLNGVAIEEGTTYTLRYTATASTDVTVRALVGQNGAPYGTVLDTSPALTSEPRQVTETFTASATYPATPAADDPEGQIAFQLGGFSADAWTLCLDDVALDSEVEL
modifications: OBP::GQ20::CBM (recombinant protein)
For the molecule B2, in series [5], the “Release of fragrance in presence of sweat, value reported in state of art (ref. 25)” value is 1.3 ×. Moreover, in series [2], the “Reduction of affinity” value is 1.3 × and the Ka in sweat (affinity/association constant) stood at 3.16 µM⁻¹. In series [3], this molecule yielded a Ka in buffer (affinity/association constant) of 4.17 µM⁻¹.

B3: OBP::GQ20::KP: Recombinant pig OBP fused with linker GQ 20× and KP peptide, SEQ ID NO. 21 (protein)
chain: QEPQPEQDPFELSGKWITSYIGSSDLEKIGENAPFQVFMRSIEFDDKESKVYLNFFSKENGICEEFSLIGTKQEGNTYDVNYAGNNKFVVSYASETALIISNINVDEEGDKTIMTGLLGKGTDIEDQDLEKFKEVTRENGIPEENIVNIIERDDCPAGQGQGQGQGQGQGQGQGQGQGQGQGQGQGQGQGQGQGQGQGGVCGPSPPCITT
modifications: OBP::GQ20::KP (recombinant protein)
With B3, the “Odorific molecules released in response to human perspiration, compared with other fusion proteins based on porcine OBP” value in series [1] is given as above 6.8 ×. The “More fragrance release in presence of sweat versus presence of buffer” value in series [1] (sweat versus buffer) was determined as 6.8 ×. Further, in series [2], the “Reduction of affinity” value is 6.8 × and the Ka in sweat (affinity/association constant) is 0.59 µM⁻¹. The molecule also returned a Ka in buffer (affinity/association constant) in series [3] of 4 µM⁻¹.
